B1: Epsin-1 (Saccharomyces cerevisiae), Q12518 (parent)
chain: MSKQFVRSAKNLVKGYSSTQVLVRNATSNDNHQVSKDSLIELAEKSYDSADFFEIMDMLDKRLNDKGKYWRHIAKALTVIDYLIRFGSENCVLWCRENLYIIKTLKEFRHEDDEGIDQGQIVRVKAKELTALLSDDERLNEERNMNIKGRNRKGRRRRGTGRSDENDDDLQRAISASRLTAEEDERRRKQDEDYETALQLSKEEEELKRLQDLQRMQQQQGQQQLQQPMYYDIFGNPITPEEYAQFQLQQQQQQQQQQLQQQPMYYDVFGNPITPEELAQFQQQQQLQEQQYLASMQQQQQAMSNNPFAKSEQSSSSPKRNQLVAASSPQQLQQQKQQEPLIQNRTGNQSMTDKYSKLNELLATGTGIDTFGNVGEARIPAQHTKTGTFINSQGTGYRQVSDDPNHNPFLNSQYTGLPSTSVVPTQTGYGFGNQSQQQSQNNGSNNRGYTLIDL
partner: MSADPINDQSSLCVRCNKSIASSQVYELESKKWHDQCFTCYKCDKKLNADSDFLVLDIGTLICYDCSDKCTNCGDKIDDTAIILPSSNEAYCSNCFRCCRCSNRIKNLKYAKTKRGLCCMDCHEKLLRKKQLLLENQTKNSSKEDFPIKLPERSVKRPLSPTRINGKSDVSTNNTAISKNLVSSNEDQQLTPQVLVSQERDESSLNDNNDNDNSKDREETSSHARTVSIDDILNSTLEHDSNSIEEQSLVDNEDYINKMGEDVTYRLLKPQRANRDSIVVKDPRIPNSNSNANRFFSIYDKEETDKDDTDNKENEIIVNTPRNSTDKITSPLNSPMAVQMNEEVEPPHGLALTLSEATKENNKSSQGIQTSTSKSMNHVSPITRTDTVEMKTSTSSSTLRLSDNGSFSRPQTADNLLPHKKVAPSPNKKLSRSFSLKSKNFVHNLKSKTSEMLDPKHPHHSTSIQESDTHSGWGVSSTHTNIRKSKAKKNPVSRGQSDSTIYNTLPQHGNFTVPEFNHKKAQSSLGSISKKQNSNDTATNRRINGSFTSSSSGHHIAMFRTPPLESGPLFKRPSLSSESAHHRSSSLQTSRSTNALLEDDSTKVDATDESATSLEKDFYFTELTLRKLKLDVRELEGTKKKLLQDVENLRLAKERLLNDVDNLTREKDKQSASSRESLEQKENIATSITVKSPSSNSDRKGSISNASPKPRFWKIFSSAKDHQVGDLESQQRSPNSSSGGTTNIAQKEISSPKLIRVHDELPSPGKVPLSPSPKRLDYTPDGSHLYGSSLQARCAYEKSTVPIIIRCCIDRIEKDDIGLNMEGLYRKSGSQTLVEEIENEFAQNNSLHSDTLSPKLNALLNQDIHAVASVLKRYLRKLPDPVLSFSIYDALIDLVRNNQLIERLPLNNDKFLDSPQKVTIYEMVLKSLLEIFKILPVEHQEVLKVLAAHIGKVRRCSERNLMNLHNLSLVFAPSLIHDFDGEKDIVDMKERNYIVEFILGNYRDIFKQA

Variants of: B1
Details: with rga2_yeast RGA2, Q06407

effect of a mutation on the interaction	Variant
disrupting interaction strength	Y100R;T104D
disrupting interaction strength	T104D

Variants of: B1
Details: with rga2_yeast RGA2, Q06407
Remark: another data set of the same source

effect of a mutation on the interaction	Variant
disrupting interaction strength	Y100R

— IntAct's records for PubMed 16537494
